US7662583B2, “Bioreactor containing cells expressing glycosyltransferase nucleic acids isolatable from Arabidopsis” (The University of York, priority 2003, dated 2010)

Assay: UGT enzyme reaction with quercetin (recombinant UGTs, HPLC)
Format: biochemical, Arabidopsis
Conditions: 0.5 mM quercetin, 5 mM UDP-glucose, 30° C.; for Specific activity (nkat/mg protein) 3-O-glc: quercetin glucosylated at 3-OH; for Specific activity (nkat/mg protein) 3′-O-glc: quercetin glucosylated at 3′-OH; for Specific activity (nkat/mg protein) 4′-O-glc: quercetin glucosylated at 4′-OH; for Specific activity (nkat/mg protein) 7-O-glc: quercetin glucosylated at 7-OH
Experimental: The assay mix (200 μl) contained 2 μg of recombinant protein, 100 mM Tris-HCl, pH 7.0, 5 mM UDP-glucose 1.4 mM 2-mercaptoethanol, and 0.5 mM of quercetin. The reaction was carried out at 30° C. for 1 h, and was quick-frozen and stored at −20° C. prior to the reverse-phase HPLC analysis
Reverse-phase HPLC (SpectraSYSTEM HPLC systems and UV6000LP Photodiode Array Detector, ThermoQuest) analysis was carried using a Columbus 5μ C18 column (250×4.60 mm, PHENOMENEX). Quercetin glucosides were separated from the aglycone by a linear gradient of 10-75% acetonitrile in H2O (all solution contained 0.1% trifluoroacetic acid) at 1 ml/mm over 20 mm and monitored at 370 nm. Cytokinin glucosides were separated from their aglycone by a liner gradient of 10-100% methanol in H2O (for N6-isopentenyladenine (iP), N6-benzyladenine and kinetin) or 10-60% methanol in H2O (for trans-zeatin and dihydrozeatin) at 1 ml/min over 20 mm. All solution contained 0.25% acetic acid and 0.04% triethylamine, trifluoroacetic acid. The separation was monitored at 206 nm and 252 nm. The identity of the products was confirmed by comparison with authentic gluco sides.
The activity of Arabidopsis recombinant UGTs towards quercetin was determined using the platform developed previously^15.

Row | Molecule | Specific activity (nkat/mg protein) 3-O-glc [nkat/mg protein] | Specific activity (nkat/mg protein) 3′-O-glc | Specific activity (nkat/mg protein) 4′-O-glc | Specific activity (nkat/mg protein) 7-O-glc
1 | UGT71B5: Arabidopsis recombinant glycosyltransferase (protein, UniProt O23382 1-478, looked up) UDP-glycosyltransferase 71B5: MKIELVFIPLPGIGHLRPTVKLAKQLIGSENRLSITIIIIPSRFDAGDASACIASLTTLSQDDRLHYESISVAKQPPTSDPDPVPAQVYIEKQKTKVRDAVAARIVDPTRKLAGFVVDMFCSSMIDVANEFGVPCYMVYTSNATFLGTMLHVQQMYDQKKYDVSELENSVTELEFPSLTRPYPVKCLPHILTSKEWLPLSLAQARCFRKMKGILVNTVAELEPHALKMFNINGDDLPQVYPVGPVLHLENGNDDDEKQSEILRWLDEQPSKSVVFLCFGSLGGFTEEQTRETAVALDRSGQRFLWCLRHASPNIKTDRPRDYTNLEEVLPEGFLERTLDRGKVIGWAPQVAVLEKPAIGGFVTHCGWNSILESLWFGVPMVTWPLYAEQKVNAFEMVEELGLAVEIRKYLKGDLFAGEMETVTAEDIERAIRRVMEQDSDVRNNVKEMAEKCHFALMDGGSSKAALEKFIQDVIENMD | 0.26 | — (Activity lower than 0.02 nkat/mg protein has been considered as trace activity and is not shown in the Table.) | — (Activity lower than 0.02 nkat/mg protein has been considered as trace activity and is not shown in the Table.) | — (Activity lower than 0.02 nkat/mg protein has been considered as trace activity and is not shown in the Table.)
2 | UGT72B3: Arabidopsis recombinant glycosyltransferase (protein, UniProt Q9LNI1 1-481, looked up) UDP-glycosyltransferase 72B3: MADGNTPHVAIIPSPGIGHLIPLVELAKRLLDNHGFTVTFIIPGDSPPSKAQRSVLNSLPSSIASVFLPPADLSDVPSTARIETRISLTVTRSNPALRELFGSLSAEKRLPAVLVVDLFGTDAFDVAAEFHVSPYIFYASNANVLTFLLHLPKLDETVSCEFRELTEPVIIPGCVPITGKDFVDPCQDRKDESYKWLLHNVKRFKEAEGILVNSFVDLEPNTIKIVQEPAPDKPPVYLIGPLVNSGSHDADVNDEYKCLNWLDNQPFGSVLYVSFGSGGTLTFEQFIELALGLAESGKRFLWVIRSPSGIASSSYFNPQSRNDPFSFLPQGFLDRTKEKGLVVGSWAPQAQILTHTSIGGFLTHCGWNSSLESIVNGVPLIAWPLYAEQKMNALLLVDVGAALRARLGEDGVVGREEVARVVKGLIEGEEGNAVRKKMKELKEGSVRVLRDDGFSTKSLNEVSLKWKAHQRKIDQEQESFL | 0.20 | — (Activity lower than 0.02 nkat/mg protein has been considered as trace activity and is not shown in the Table.) | — (Activity lower than 0.02 nkat/mg protein has been considered as trace activity and is not shown in the Table.) | — (Activity lower than 0.02 nkat/mg protein has been considered as trace activity and is not shown in the Table.)
3 | UGT78D3: Arabidopsis recombinant glycosyltransferase, FIG. 6 (protein, UniProt Q9LFK0 1-459, looked up) UDP-glycosyltransferase 78D3: MAKPSQPTRDSHVAVLVFPFGTHAAPLLAVTCRLATAAPSTVFSFFSTARSNSSLLSSDIPTNIRVHNVDDGVPEGFVLTGNPQHAVELFLEAAPEIFRREIKAAETEVGRKFKCILTDAFLWLAAETAAAEMKASWVAYYGGGATSLTAHLYTDAIRENVGVKEVGERMEETIGFISGMEKIRVKDTQEGVVFGNLDSVFSKTLHQMGLALPRATAVFINSFEELDPTFTNDFRSEFKRYLNIGPLALLSSPSQTSTLVHDPHGCLAWIEKRSTASVAYIAFGRVATPPPVELVAIAQGLESSKVPFVWSLQEMKMTHLPEGFLDRTREQGMVVPWAPQVELLNHEAMGVFVSHGGWNSVLESVSAGVPMICRPIFGDHAINARSVEAVWEIGVTISSGVFTKDGFEESLDRVLVQDDGKKMKVNAKKLEELAQEAVSTKGSSFENFGGLLDEVVNFG | 0.16 | — (Activity lower than 0.02 nkat/mg protein has been considered as trace activity and is not shown in the Table.) | — (Activity lower than 0.02 nkat/mg protein has been considered as trace activity and is not shown in the Table.) | — (Activity lower than 0.02 nkat/mg protein has been considered as trace activity and is not shown in the Table.)
4 | UGT71C5: Arabidopsis recombinant glycosyltransferase (protein, UniProt Q9FE68 1-480, looked up) UDP-glycosyltransferase 71C5: MKTAELIFVPLPETGHLLSTIEFGKRLLNLDRRISMITILSMNLPYAPHADASLASLTASEPGIRIISLPEIHDPPPIKLLDTSSETYILDFIHKNIPCLRKTIQDLVSSSSSSGGGSSHVAGLILDFFCVGLIDIGREVNLPSYIFMTSNFGFLGVLQYLPERQRLTPSEFDESSGEEELHIPAFVNRVPAKVLPPGVFDKLSYGSLVKIGERLHEAKGILVNSFTQVEPYAAEHFSQGRDYPHVYPVGPVLNLTGRTNPGLASAQYKEMMKWLDEQPDSSVLFLCFGSMGVFPAPQITEIAHALELIGCRFIWAIRTNMAGDGDPQEPLPEGFVDRTMGRGIVCSWAPQVDILAHKATGGFVSHCGWNSVQESLWYGVPIATWPMYAEQQLNAFEMVKELGLAVEIRLDYVADGDRVTLEIVSADEIATAVRSLMDSDNPVRKKVIEKSSVARKAVGDGGSSTVATCNFIKDILGDHF | 0.33 | — (Activity lower than 0.02 nkat/mg protein has been considered as trace activity and is not shown in the Table.) | — (Activity lower than 0.02 nkat/mg protein has been considered as trace activity and is not shown in the Table.) | — (Activity lower than 0.02 nkat/mg protein has been considered as trace activity and is not shown in the Table.)
5 | UGT78D1: Arabidopsis recombinant glycosyltransferase (protein, UniProt Q9S9P6 1-453, looked up) Flavonol-3-O-rhamnosyltransfer …: MTKFSEPIRDSHVAVLAFFPVGAHAGPLLAVTRRLAAASPSTIFSFFNTARSNASLFSSDHPENIKVHDVSDGVPEGTMLGNPLEMVELFLEAAPRIFRSEIAAAEIEVGKKVTCMLTDAFFWFAADIAAELNATWVAFWAGGANSLCAHLYTDLIRETIGLKDVSMEETLGFIPGMENYRVKDIPEEVVFEDLDSVFPKALYQMSLALPRASAVFISSFEELEPTLNYNLRSKLKRFLNIAPLTLLSSTSEKEMRDPHGCFAWMGKRSAASVAYISFGTVMEPPPEELVAIAQGLESSKVPFVWSLKEKNMVHLPKGFLDRTREQGIVVPWAPQVELLKHEAMGVNVTHCGWNSVLESVSAGVPMIGRPILADNRLNGRAVEVVWKVGVMMDNGVFTKEGFEKCLNDVFVHDDGKTMKANAKKLKEKLQEDFSMKGSSLENFKILLDEIVKV | 0.24 | — (Activity lower than 0.02 nkat/mg protein has been considered as trace activity and is not shown in the Table.) | — (Activity lower than 0.02 nkat/mg protein has been considered as trace activity and is not shown in the Table.) | — (Activity lower than 0.02 nkat/mg protein has been considered as trace activity and is not shown in the Table.)
6 | UGT73B2: Arabidopsis recombinant glycosyltransferase (protein, UniProt Q94C57 1-483, looked up) UDP-glucosyl transferase 73B2: MGSDHHHRKLHVMFFPFMAYGHMIPTLDMAKLFSSRGAKSTILTTSLNSKILQKPIDTFKNLNPGLEIDIQIFNFPCVELGLPEGCENVDFFTSNNNDDKNEMIVKFFFSTRFFKDQLEKLLGTTRPDCLIADMFFPWATEAAGKFNVPRLVFHGTGYFSLCAGYCIGVHKPQKRVASSSEPFVIPELPGNIVITEEQIIDGDGESDMGKFMTEVRESEVKSSGVVLNSFYELEHDYADFYKSCVQKRAWHIGPLSVYNRGFEEKAERGKKANIDEAECLKWLDSKKPNSVIYVSFGSVAFFKNEQLFEIAAGLEASGTSFIWVVRKTKDDREEWLPEGFEERVKGKGMIIRGWAPQVLILDHQATGGFVTHCGWNSLLEGVAAGLPMVTWPVGAEQFYNEKLVTQVLRTGVSVGASKHMKVMMGDFISREKVDKAVREVLAGEAAEERRRRAKKLAAMAKAAVEEGGSSFNDLNSFMEEFSS | 0.92 | — (Activity lower than 0.02 nkat/mg protein has been considered as trace activity and is not shown in the Table.) | — (Activity lower than 0.02 nkat/mg protein has been considered as trace activity and is not shown in the Table.) | — (Activity lower than 0.02 nkat/mg protein has been considered as trace activity and is not shown in the Table.)
